Results as given in patent US20250361299A1 (published 2025).

Columns and labels:
[1] = target: T1, Recombinant human EGFR (human, UniProt P00533 25-645); experiment: ELISA; without uPA
[2] = target: T2, Human CD3 protein (human, UniProt P07766 23-126); experiment: ELISA; without uPA
T2 chain: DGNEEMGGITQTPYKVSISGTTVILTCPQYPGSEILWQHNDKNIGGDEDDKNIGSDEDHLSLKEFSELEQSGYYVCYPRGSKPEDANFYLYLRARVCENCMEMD

[3] = target: T1, Recombinant human EGFR; experiment: ELISA; without uPA; remark: listed apart in the source
[4] = target: T2, Human CD3 protein; experiment: ELISA; without uPA
[5] = target: T1, Recombinant human EGFR; experiment: ELISA; with uPA
[6] = target: T2, Human CD3 protein; experiment: ELISA; with uPA
[7] = target: T1, Recombinant human EGFR; experiment: ELISA
[8] = target: T2, Human CD3 protein; experiment: ELISA
[9] = target: T1, Recombinant human EGFR; experiment: ELISA; remark: listed apart in the source
[10] = target: T2, Human CD3 protein; experiment: ELISA
[11] = target: T1, Recombinant human EGFR; experiment: ELISA; remark: listed apart in the source
[12] = target: T2, Human CD3 protein; experiment: ELISA

B1: 1.4.3M-Pa proBiTE (bispecific antibody)
heavy: QDGNEEMGGIGGGSQDGNEEMGGGGGSGGGSGLSGRSDNHGGSEVQLVESGGGLVQPGGSLRLSCAASGFTFNTYAMNWVRQAPGKGLEWVARIRSKYNNYATYYADSVKGRFTISRDDSKNTLYLQMNSLRAEDTAVYYCARHGNFGSSYVSYFAYWGQGTTVTVSSGGGSSGGGGSGGGGSQVQLQESGPGLVKPSETLSLTCTVSGGSVSSGDYYWTWIRQSPGKGLEWIGHIYYSGNTNYNPSLKSRLTISIDTSKTQFSLKLSSVTAADTAIYYCVRDRVTGAFDIWGQGTMVTVSSASTKGPSVFPLAPSSKSTSGGTAALGCLVKDYFPEPVTVSWNSGALTSGVHTFPAVLQSSGLYSLSSVVTVPSSSLGTQTYICNVNHKPSNTKVDKKVEPKSCPPCPAPEAAGGPSVFLFPPKPKDTLMISRTPEVTCVVVDVSHEDPEVKFNWYVDGVEVHNAKTKPREEQYNSTYRVVSVLTVLHQDWLNGKEYKCKVSNKALPAPIEKTISKAKGQPREPQVYTLPPSRDELTKNQVSLLCLVKGFYPSDIAVEWESNGQPENNYKTTPPVLDSDGSFFLHSKLTVDKSRWQQGNVFSCSVMHEALHNHYTQKSLSLSPGK
light: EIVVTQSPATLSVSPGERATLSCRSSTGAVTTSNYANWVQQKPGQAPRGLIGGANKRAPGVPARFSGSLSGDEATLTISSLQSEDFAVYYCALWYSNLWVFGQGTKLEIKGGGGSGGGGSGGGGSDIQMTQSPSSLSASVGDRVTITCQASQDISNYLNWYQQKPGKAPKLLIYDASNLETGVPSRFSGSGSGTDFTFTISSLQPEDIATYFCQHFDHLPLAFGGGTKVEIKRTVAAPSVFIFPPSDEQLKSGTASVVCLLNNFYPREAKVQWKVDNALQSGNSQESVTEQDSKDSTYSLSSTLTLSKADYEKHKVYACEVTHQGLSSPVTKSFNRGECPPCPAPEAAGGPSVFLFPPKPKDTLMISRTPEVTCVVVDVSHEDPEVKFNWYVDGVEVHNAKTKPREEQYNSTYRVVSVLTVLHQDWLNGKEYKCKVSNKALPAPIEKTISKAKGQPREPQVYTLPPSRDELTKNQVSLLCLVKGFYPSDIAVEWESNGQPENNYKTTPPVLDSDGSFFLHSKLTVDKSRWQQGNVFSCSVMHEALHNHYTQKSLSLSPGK
EC50 [1]: 0.244 µg/mL | EC50 [2]: 6.57 µg/mL

B2: 1.6.1M-Pa proBiTE (bispecific antibody)
heavy: QDGNEEMGGGSQDGNEEMGGIGGGSGGGGSGLSGRSDNHGGGGSEVQLVESGGGLVQPGGSLRLSCAASGFTFNTYAMNWVRQAPGKGLEWVARIRSKYNNYATYYADSVKGRFTISRDDSKNTLYLQMNSLRAEDTAVYYCARHGNFGSSYVSYFAYWGQGTTVTVSSASTKGPSVFPLAPSSKSTSGGTAALGCLVKDYFPEPVTVSWNSGALTSGVHTFPAVLQSSGLYSLSSVVTVPSSSLGTQTYICNVNHKPSNTKVDKKVEPKSCPPCPAPEAAGAPSVFLFPPKPKDTLMISRTPEVTCVVVDVSHEDPEVKFNWYVDGVEVHNAKTKPREEQYNSTYRVVSVLTVLHQDWLNGKEYKCKVSNKALPAPIEKTISKAKGQPREPQVYTLPPSRDELTKNQVSLLCLVKGFYPSDIAVEWESNGQPENNYKTTPPVLDSDGSFFLHSKLTVDKSRWQQGNVFSCSVMHEALHNHYTQKSLSLSPGK
light: QVQLQESGPGLVKPSETLSLTCTVSGGSVSSGDYYWTWIRQSPGKGLEWIGHIYYSGNTNYNPSLKSRLTISIDTSKTQFSLKLSSVTAADTAIYYCVRDRVTGAFDIWGQGTMVTVSSGGGGSGGGGSGGGGSGGGGSDIQMTQSPSSLSASVGDRVTITCQASQDISNYLNWYQQKPGKAPKLLIYDASNLETGVPSRFSGSGSGTDFTFTISSLQPEDIATYFCQHFDHLPLAFGGGTKVEIKGGGGSGGGGSGGGGSGGGGSEIVVTQSPATLSVSPGERATLSCRSSTGAVTTSNYANWVQQKPGQAPRGLIGGANKRAPGVPARFSGSLSGDEATLTISSLQSEDFAVYYCALWYSNLWVFGQGTKLEIKRTVAAPSVFIFPPSDEQLKSGTASVVCLLNNFYPREAKVQWKVDNALQSGNSQESVTEQDSKDSTYSLSSTLTLSKADYEKHKVYACEVTHQGLSSPVTKSFNRGECPPCPAPEAAGAPSVFLFPPKPKDTLMISRTPEVTCVVVDVSHEDPEVKFNWYVDGVEVHNAKTKPREEQYNSTYRVVSVLTVLHQDWLNGKEYKCKVSNKALPAPIEKTISKAKGQPREPQVYTLPPSRDELTKNQVSLLCLVKGFYPSDIAVEWESNGQPENNYKTTPPVLDSDGSFFLHSKLTVDKSRWQQGNVFSCSVMHEALHNHYTQKSLSLSPGK
EC50 [3]: 0.0154 µg/mL | EC50 [4]: 47.2 µg/mL

B3: 1.6.1M-Pa proBiTE after uPA digestion (bispecific antibody)
heavy: SDNHGGGGSEVQLVESGGGLVQPGGSLRLSCAASGFTFNTYAMNWVRQAPGKGLEWVARIRSKYNNYATYYADSVKGRFTISRDDSKNTLYLQMNSLRAEDTAVYYCARHGNFGSSYVSYFAYWGQGTTVTVSSASTKGPSVFPLAPSSKSTSGGTAALGCLVKDYFPEPVTVSWNSGALTSGVHTFPAVLQSSGLYSLSSVVTVPSSSLGTQTYICNVNHKPSNTKVDKKVEPKSCPPCPAPEAAGAPSVFLFPPKPKDTLMISRTPEVTCVVVDVSHEDPEVKFNWYVDGVEVHNAKTKPREEQYNSTYRVVSVLTVLHQDWLNGKEYKCKVSNKALPAPIEKTISKAKGQPREPQVYTLPPSRDELTKNQVSLLCLVKGFYPSDIAVEWESNGQPENNYKTTPPVLDSDGSFFLHSKLTVDKSRWQQGNVFSCSVMHEALHNHYTQKSLSLSPGK
light: B2 light
EC50 [5]: 0.0186 µg/mL | EC50 [6]: 0.67 µg/mL

B4: 1.6.1M-Pa-Noncleavable BiTE (bispecific antibody)
heavy: QDGNEEMGGGSQDGNEEMGGIGGGSGGGGSGLSGAGNHGGGGSEVQLVESGGGLVQPGGSLRLSCAASGFTFNTYAMNWVRQAPGKGLEWVARIRSKYNNYATYYADSVKGRFTISRDDSKNTLYLQMNSLRAEDTAVYYCARHGNFGSSYVSYFAYWGQGTTVTVSSASTKGPSVFPLAPSSKSTSGGTAALGCLVKDYFPEPVTVSWNSGALTSGVHTFPAVLQSSGLYSLSSVVTVPSSSLGTQTYICNVNHKPSNTKVDKKVEPKSCPPCPAPEAAGAPSVFLFPPKPKDTLMISRTPEVTCVVVDVSHEDPEVKFNWYVDGVEVHNAKTKPREEQYNSTYRVVSVLTVLHQDWLNGKEYKCKVSNKALPAPIEKTISKAKGQPREPQVYTLPPSRDELTKNQVSLLCLVKGFYPSDIAVEWESNGQPENNYKTTPPVLDSDGSFFLHSKLTVDKSRWQQGNVFSCSVMHEALHNHYTQKSLSLSPGK
light: B2 light
EC50 [7]: 0.027 µg/mL | EC50 [8]: ~99500 µg/mL

B5: 1.6.1M-Pa-Unmask iBiTE (bispecific antibody)
heavy: EVQLVESGGGLVQPGGSLRLSCAASGFTFNTYAMNWVRQAPGKGLEWVARIRSKYNNYATYYADSVKGRFTISRDDSKNTLYLQMNSLRAEDTAVYYCARHGNFGSSYVSYFAYWGQGTTVTVSSASTKGPSVFPLAPSSKSTSGGTAALGCLVKDYFPEPVTVSWNSGALTSGVHTFPAVLQSSGLYSLSSVVTVPSSSLGTQTYICNVNHKPSNTKVDKKVEPKSCPPCPAPEAAGAPSVFLFPPKPKDTLMISRTPEVTCVVVDVSHEDPEVKFNWYVDGVEVHNAKTKPREEQYNSTYRVVSVLTVLHQDWLNGKEYKCKVSNKALPAPIEKTISKAKGQPREPQVYTLPPSRDELTKNQVSLLCLVKGFYPSDIAVEWESNGQPENNYKTTPPVLDSDGSFFLHSKLTVDKSRWQQGNVFSCSVMHEALHNHYTQKSLSLSPGK
light: B2 light
EC50 [7]: 0.0106 µg/mL | EC50 [8]: 0.462 µg/mL

B6: 1.6.1M-Pa-CTR (antibody)
chain 1: B5 heavy
chain 2: B2 light
EC50 [9]: 0.0264 µg/mL | EC50 [10]: 0.613 µg/mL

B7: 1.4.3M-Pa-Noncleavable (antibody)
chain 1: QDGNEEMGGIGGGSQDGNEEMGGGGGSGGGSGGSEVQLVESGGGLVQPGGSLRLSCAASGFTFNTYAMNWVRQAPGKGLEWVARIRSKYNNYATYYADSVKGRFTISRDDSKNTLYLQMNSLRAEDTAVYYCARHGNFGSSYVSYFAYWGQGTTVTVSSGGGSSGGGGSGGGGSQVQLQESGPGLVKPSETLSLTCTVSGGSVSSGDYYWTWIRQSPGKGLEWIGHIYYSGNTNYNPSLKSRLTISIDTSKTQFSLKLSSVTAADTAIYYCVRDRVTGAFDIWGQGTMVTVSSASTKGPSVFPLAPSSKSTSGGTAALGCLVKDYFPEPVTVSWNSGALTSGVHTFPAVLQSSGLYSLSSVVTVPSSSLGTQTYICNVNHKPSNTKVDKKVEPKSCPPCPAPEAAGGPSVFLFPPKPKDTLMISRTPEVTCVVVDVSHEDPEVKFNWYVDGVEVHNAKTKPREEQYNSTYRVVSVLTVLHQDWLNGKEYKCKVSNKALPAPIEKTISKAKGQPREPQVYTLPPSRDELTKNQVSLLCLVKGFYPSDIAVEWESNGQPENNYKTTPPVLDSDGSFFLHSKLTVDKSRWQQGNVFSCSVMHEALHNHYTQKSLSLSPGK
chain 2: not shown
EC50 [11]: 0.255 µg/mL | EC50 [12]: 7.43 µg/mL
